Source: article PMC10908814

Molecular target: T1, NgAgo (engineered Natronobacterium gregoryi Argonaute) (Natronobacterium gregoryi) (UniProt L0AJX6)
T1 sequence: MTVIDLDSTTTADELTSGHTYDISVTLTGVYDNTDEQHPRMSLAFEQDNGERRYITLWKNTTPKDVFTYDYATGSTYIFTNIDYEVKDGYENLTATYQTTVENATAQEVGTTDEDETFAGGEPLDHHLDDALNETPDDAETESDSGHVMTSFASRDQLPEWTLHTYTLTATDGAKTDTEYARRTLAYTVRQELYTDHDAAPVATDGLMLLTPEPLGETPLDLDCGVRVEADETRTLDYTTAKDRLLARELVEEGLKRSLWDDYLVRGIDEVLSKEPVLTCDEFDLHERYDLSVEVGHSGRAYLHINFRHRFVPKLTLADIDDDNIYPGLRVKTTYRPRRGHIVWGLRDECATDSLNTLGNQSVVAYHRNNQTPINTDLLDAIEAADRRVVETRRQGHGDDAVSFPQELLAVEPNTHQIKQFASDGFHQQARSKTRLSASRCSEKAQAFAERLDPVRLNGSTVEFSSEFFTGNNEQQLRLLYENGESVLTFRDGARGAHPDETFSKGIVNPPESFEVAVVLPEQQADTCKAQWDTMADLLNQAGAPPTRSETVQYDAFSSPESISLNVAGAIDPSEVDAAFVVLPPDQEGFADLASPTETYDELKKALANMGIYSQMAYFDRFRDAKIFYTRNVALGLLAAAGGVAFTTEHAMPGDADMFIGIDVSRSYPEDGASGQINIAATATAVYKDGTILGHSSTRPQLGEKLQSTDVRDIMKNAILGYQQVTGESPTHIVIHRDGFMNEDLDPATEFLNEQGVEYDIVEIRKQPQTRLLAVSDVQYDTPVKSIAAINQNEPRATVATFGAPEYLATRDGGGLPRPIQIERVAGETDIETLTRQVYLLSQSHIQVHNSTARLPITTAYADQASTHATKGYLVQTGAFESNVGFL
Experiment: SPR
Conditions: 5'-phosphate on guide; SPR: 10 mM HEPES, 150 mM NaCl, 3 mM EDTA, pH 7.4, 0.005% Tween-20, temperature not stated; EMSA: 2% agarose, 1x TAE, 100 V

In the case of “TAAACCCAAAGAATGTCTGAGGGG / CCCTCCTTTTGTAAACAATGCATTCATCGACCTTCCAGCCGGGGTTGGTTCTGCCCCTCTCTCTGTCCTTCAGAGGAACCAGGGACCTCGGGCACCCCAGAGCCCCTCGGGCCCGCCTCCAGGCGCCCTCCTGGTCTCCGCTCCCCTCTGAGCCCCGTTAAACCCAAAGAATGTCTGAGGGGAGCCACCCTCGGGGCCCAGGCCCCAGAGTCACAC / CCCCTCAGACATTCTTTGGGTTTA [g3 guide / EBV cfDNA SPR amplicon]”, the Kd is reported as 5.49 nM.
